The numbers were not newly measured in paper PMC9405863, which cites them from elsewhere.

A word on the Kd: it is the concentration at which binding is half-saturated.

This data set deals with Calmodulin (Homo sapiens) (UniProt P0DP23). The data set can be described thus: ITC. (Isothermal titration calorimetry measures the heat released or taken up as one component is titrated into another.)

Regarding “STIM2 K-rich domain (from UniProt Q9P246)”, the equilibrium dissociation constant (Kd) was 900 nM.

Turning to “STIM1 K-rich domain (from UniProt Q13586)”, the Kd is 800 nM.
